{"source": "paper PMC7795666", "key": {"[1]": {"target": "pyrene-labeled F-actin (chicken skeletal actin) (chicken) (UniProt P68139)", "assay": "stopped-flow transient kinetics (pyrene-actin fluorescence); no nucleotide; k'+A from linear fits of kobs; k'-A from mixing 1 µM pyrene-actomyosin complex with excess unlabeled F-actin; 1/K'A calculated as k'-A/k'+A; 20 °C, 20 mM MOPS, 100 mM KCl, 5 mM MgCl2, 1 mM DTT, pH 7.0"}, "[2]": {"target": "F-actin (chicken skeletal actin) (chicken) (UniProt P68139)"}, "[3]": {"target": "pyrene-labeled F-actin (chicken skeletal actin) (chicken) (UniProt P68139)", "assay": "double-mixing stopped-flow (pyrene-actin fluorescence quench); weak-to-strong transition, single turnover: 2 µM myosin mixed with sub-equimolar ATP (1.8 µM), aged 3 s, then mixed with 20 µM pyrene-actin; double exponential fits; 20 °C"}, "[4]": {"target": "pyrene-labeled F-actin (chicken skeletal actin) (chicken) (UniProt P68139)", "assay": "stopped-flow (pyrene-actin fluorescence amplitude); multiple turnover: 2 µM myosin and 15 µM pyrene-actin mixed with 20 µM ATP; signal normalised to 100% of myosin bound to actin without nucleotide; fraction strongly bound from the change in total amplitude"}, "[5]": {"target": "pyrene-labeled F-actin (chicken skeletal actin) (chicken) (UniProt P68139)", "assay": "stopped-flow transient kinetics (pyrene-actin fluorescence); with ADP (ADP-myosin); k'+DA from linear dependence of kobs on pyrene-actin concentration; k'-DA from 1 µM pyrA.M pre-incubated with excess ADP mixed with excess unlabeled F-actin; 1/K'DA calculated as k'-DA/k'+DA; 20 °C, 20 mM MOPS, 100 mM KCl, 5 mM MgCl2, 1 mM DTT, pH 7.0"}, "[6]": {"target": "pyrene-labeled F-actin (chicken skeletal actin) (chicken) (UniProt P68139)", "assay": "stopped-flow (pyrene-actin fluorescence amplitude); multiple turnover: 2 µM myosin and 15 µM pyrene-actin mixed with 20 µM ATP; signal normalised to 100% of myosin bound to actin without nucleotide; fraction strongly bound from the change in total amplitude", "remark": "listed apart in the source"}, "[7]": {"target": "F-actin (chicken skeletal actin) (chicken) (UniProt P68139)", "assay": "double-mixing stopped-flow, actin-activated Pi release (MDCC-PBP fluorescence); M.D.Pi state; multiple turnover: 2 µM myosin mixed with 200 µM ATP, aged 0.1 s, then mixed with increasing F-actin in excess ADP, 5 µM MDCC-PBP; hyperbolic fit kobs = k'+4[actin]/(1/K'DPA+[actin]); 20 °C, 20 mM MOPS, 100 mM KCl, 5 mM MgCl2, 1 mM DTT, pH 7.0"}, "[8]": {"target": "pyrene-labeled F-actin (chicken skeletal actin) (chicken) (UniProt P68139)", "assay": "double-mixing stopped-flow (pyrene-actin fluorescence quench); weak-to-strong transition, single turnover: 2 µM myosin mixed with sub-equimolar ATP (1.8 µM), aged 3 s, then mixed with 20 µM pyrene-actin; double exponential fits; 20 °C", "remark": "listed apart in the source"}}, "note": "Read-outs that look alike come from different tables or passages of the source.", "data": [{"substance": "M765^AA-2R, D. discoideum myosin-2 motor domain (amino acids 1-765) with T647A, T648A fused to two alpha-actinin repeats (from UniProt P08799 1-765) (domain or fragment)", "values": [{"measurement": "Kd", "setting": "[1]", "value": 10, "unit": "nM"}, {"measurement": "koff", "setting": "[1]", "value": 0.004, "unit": "s⁻¹"}, {"measurement": "kon", "setting": "[1]", "value": 610000, "unit": "M⁻¹ s⁻¹"}, {"measurement": "Kapp of the actin-activated steady-state ATPase (F-actin concentration at kcat/2), NADH-coupled assay", "setting": "[2]", "value": "> 100", "unit": "µM"}, {"measurement": "kcat/Kapp (catalytic efficiency) of the actin-activated steady-state ATPase", "setting": "[2]", "value": "< 0.03", "unit": "µM⁻¹ s⁻¹"}]}, {"substance": "M765^GGG-2R, D. discoideum myosin-2 motor domain (amino acids 1-765) with the two W-loop threonines replaced by three glycines, fused to two alpha-actinin repeats (from UniProt P08799 1-765) (domain or fragment)", "values": [{"measurement": "k'weak-strong (observed rate of the weak-to-strong actin-binding transition)", "setting": "[3]", "value": 2.3, "unit": "s⁻¹"}, {"measurement": "Kd", "setting": "[1]", "value": 11, "unit": "nM"}, {"measurement": "koff", "setting": "[1]", "value": 0.005, "unit": "s⁻¹"}, {"measurement": "kon", "setting": "[1]", "value": 610000, "unit": "M⁻¹ s⁻¹"}, {"measurement": "percent strongly actin-bound with ATP (experimental duty ratio)", "setting": "[4]", "value": 45, "unit": "%"}, {"measurement": "Kd", "setting": "[5]", "value": 24, "unit": "nM"}, {"measurement": "koff", "setting": "[5]", "value": 0.005, "unit": "s⁻¹"}, {"measurement": "kon", "setting": "[5]", "value": 180000, "unit": "M⁻¹ s⁻¹"}, {"measurement": "percent strongly actin-bound with ATP (experimental duty ratio)", "setting": "[6]", "value": 35, "unit": "%"}, {"measurement": "Kapp of the actin-activated steady-state ATPase (F-actin concentration at kcat/2), NADH-coupled assay", "setting": "[2]", "value": 54, "unit": "µM"}, {"measurement": "kcat/Kapp (catalytic efficiency) of the actin-activated steady-state ATPase", "setting": "[2]", "value": 0.14, "unit": "µM⁻¹ s⁻¹"}, {"measurement": "Kd", "setting": "[7]", "value": 18, "unit": "µM"}, {"measurement": "k'+4K'DPA (second order rate constant of M.D.Pi binding to actin)", "setting": "[7]", "value": 0.79, "unit": "µM⁻¹ s⁻¹"}, {"measurement": "k'weak-strong (observed rate of the weak-to-strong actin-binding transition)", "setting": "[8]", "value": 2.6, "unit": "s⁻¹"}]}, {"substance": "M765^wt-2R, D. discoideum myosin-2 motor domain (amino acids 1-765) fused to an artificial lever of two alpha-actinin repeats (from UniProt P08799 1-765) (domain or fragment)", "values": [{"measurement": "Kd", "setting": "[1]", "value": 5.7, "unit": "nM"}, {"measurement": "koff", "setting": "[1]", "value": 0.003, "unit": "s⁻¹"}, {"measurement": "kon", "setting": "[1]", "value": 640000, "unit": "M⁻¹ s⁻¹"}, {"measurement": "Kd", "setting": "[5]", "value": 63, "unit": "nM"}, {"measurement": "koff", "setting": "[5]", "value": 0.006, "unit": "s⁻¹"}, {"measurement": "kon", "setting": "[5]", "value": 120000, "unit": "M⁻¹ s⁻¹"}, {"measurement": "Kapp of the actin-activated steady-state ATPase (F-actin concentration at kcat/2), NADH-coupled assay", "setting": "[2]", "value": "> 100", "unit": "µM"}, {"measurement": "kcat/Kapp (catalytic efficiency) of the actin-activated steady-state ATPase", "setting": "[2]", "value": "< 0.03", "unit": "µM⁻¹ s⁻¹"}, {"measurement": "Kd", "setting": "[7]", "value": 94, "unit": "µM"}, {"measurement": "k'+4K'DPA (second order rate constant of M.D.Pi binding to actin)", "setting": "[7]", "value": 0.04, "unit": "µM⁻¹ s⁻¹"}, {"measurement": "k'weak-strong (observed rate of the weak-to-strong actin-binding transition)", "setting": "[8]", "value": 1, "unit": "s⁻¹"}]}]}
